These results are taken from US9217013B2, “Treatment of amyloidoses using myelin basic protein and fragments thereof” (The Research Foundation for the State University of New York, priority 2008, dated 2015).

“Also recorded” adds a separate entry of the source.

Data set [1] addresses Aβ40DI (Homo sapiens, UniProt P05067, D694N/E693Q). Briefly: Affinity chromatography of human brain homogenate on Aβ40DI column. Format: binding. As to the method:
(§1) For some embodiments of the invention, it may be advantageous to work with purified isolates of mutant and wild-type forms of Aβ. The affinity chromatography method used in the development of embodiments of the instant invention to obtain such isolates is exemplary: To prepare affinity resins, biotinylated wild-type Aβ40 peptide (Aβ40WT) and Aβ40DI were each redissolved in 20 mM NaHCO3 buffer (pH 8.5) and applied to ImmunoPure immobilized streptavidin beads (Pierce) following the manufacturer's instructions. Immobilized ligands were cross-linked with 2 mM bis(sulfosuccinimidyl) suberate (Pierce) for 30 min with rocking at room temperature in 20 mM NaHCO3 (pH 8.5). Crosslinking reactions were stopped by the addition of 1 M Tris-HCl (pH 7.4) to a final concentration of 20 mM. Homogenates of normal human brain frontal cortex (which may obtained as biopsies) were prepared in Tris-buffered saline (50 mM Tris-HCl and 200 mM NaCl (pH 7.4)) containing complete protease inhibitor cocktail (Roche). Homogenates were centrifuged at 12,000×g for 30 min, and supernatants were loaded onto Tris-buffered saline-equilibrated affinity columns (0.8×4 cm) under gravity flow. […] Fractions were analyzed by SDS-PAGE on 10-20% Tris/glycine gradient gels. […]

The target of data set [2] is wild-type Aβ42 (Homo sapiens, UniProt P05067). Briefly: Thioflavin T fluorescence assay of Aβ42 fibril formation. Format: biochemical. The following applies: 12.5 μM Aβ42, 1.56 μM MBP. As to the method: FIG. 19 Thioflavin T analysis for inhibition of Aβ42 fibril formation by MBP. Aβ42 at a concentration of 12.5 μM in PBS in the absence (diamond) or presence of 1.56 μM MBP (triangle) or 1.56 μM […]-lactalbumin (square) as control. The data shown are the mean S.D. of triplicate samples.
The Aβ B binding properties of the exemplary fragments of MBP described herein were determined in a thioflavin T fluorescence assay as follows: Lyophilized Aβ peptides were first resuspended with Me2SO to 2.5 mM, diluted to 12.5 μM in PBS, and then incubated at 37° C. with rocking either alone or with 1.56 μM MBP or bovine α-lactalbumin. Control samples containing 0.5% Me2SO and 1.56 μM MBP or lactalbumin in PBS were also included. At each time point, 100 μl samples of each reaction were placed in a 96-well microplate in triplicate, and 5 μl of 100 µM thioflavin T was added. The plate was mixed and incubated at 22° C. in the dark for 10 min. Fluorescence was measured at 490 nm with an excitation wavelength of 446 nm in a SpectraMax spectrofluorometer (Molecular Devices, Sunnyvale, Calif.) using SoftMax Pro control software. It is apparent that the method enables persons of skill in the art to determine the binding properties of MBP, variants thereof, and fragments thereof for any Aβ-peptide, including mutants thereof.

For data set [3], the target named is Aβ40WT (Homo sapiens, UniProt P05067). The data set can be described thus: Affinity chromatography of human brain homogenate on Aβ40WT column. Format: binding. As to the method:
as §1

Data set [4] addresses Aβ42WT (Homo sapiens, UniProt P05067). Briefly: Co-immunoprecipitation of MBP with Aβ42WT. The data set is classed as binding. As to the method:
AP peptides were resuspended in Me2SO to 2.5 mM and used at 10.8 μM. MBP was used at 1.56 μM. Proteins were combined in 250 μl of incubation buffer (PBS, 0.05% Tween 20, and 1% BSA). Anti-MBP mAb 382 was added to each sample mixture and incubated for 1 h at 4° C. with rocking. After incubation, 20 μl of washed GammaBind protein G-Sepharose beads (Amersham Biosciences) were added to each mixture, followed by incubation for an additional 1 h at 4° C. with rocking. Beads were separated by centrifugation at 8000×g for 2 min. Supernatants were removed, and beads were washed with 1 ml of incubation buffer. Separation and washing were repeated three times. A final wash was performed in PBS and 0.05% Tween 20 to remove excess BSA. Centrifuged beads were combined with 25 μl of reducing SDS-PAGE loading buffer and heated as described above. 10 μl of each sample/loading buffer mixture was loaded onto 10-20% Tricine gels (Invitrogen) and electrophoresed at 125 V for 35 min. Immunoblotting was carried out as described above using either biotinylated anti-MBP mAb 384 or biotinylated anti-Aβ mAb 3D6 as primary antibody. Experiments were performed in triplicate.

Data set [5] addresses wild-type Aβ40 (Aβ40WT) (Homo sapiens, UniProt P05067). The data set can be described thus: Surface plasmon resonance binding to wild-type Aβ40. The following applies: compared with CAA mutant Aβ40. Here is the method: All runs were performed on a Biacore 2000 instrument using 10 mM HEPES (pH 7.4), 150 mM NaCl, 3 mM EDTA, and 0.005% (v/v) Tween 20 as running buffer and diluent. Streptavidiri was conjugated to the surface of three flow cells of a CM5 chip at 10 μl/min using amine coupling chemistry to a final average response level of 1890.2 response units. N-terminally biotinylated Aβ peptides were resuspended in Me2SO to 2.5 mM and serially diluted to 13 nM immediately before application. Biotinylated Aβ40WT and Aβ40DI were bound to individual flow cells at 10 μl/min to achieve an average relative response level of 157.1 response units, leaving flow cell 1 as reference. […] The resultant Rmax of these surfaces was ˜700 response units with MBP as analyte. Purified MBP was passed over all four flow cells at 5, 10, 25, 50, and 100 nM at a flow rate of 30 μl/min for kinetic measurements. […] Surfaces were regenerated with 0.2 M glycine (pH 2.0) and 150 mM NaCl between runs. The resulting sensorgrams were analyzed by BIAanalysis software. Triplicate concentration series were used for each surface.

B1: myelin basic protein (protein)
chain: ASQKRPSQRHGSKYLATASTMDHARHGFLPRHRDTGILDSIGRFFGGDRGAPKRGSGKDSHHPARTAHYGSLPQKSHGRTQDENPVVHFFKNIVTPRTPPPSQGKGRGLSLSRFSWGAEGQRPGFGYGGRASDYKSAHKGFKGVDAQGTLSKIFKLGGRDSRSGSPMARR
notes: myelin basic protein, major form about 18.5 Kd (170 residues); purified protein
Take B1: the “capture on Aβ40DI affinity column” value in data set [1] is given as “captured; also recorded: preferentially binds”. Moreover, the “inhibition of wild-type Aβ42 fibrillogenesis (thioflavin T)” value in data set [2] is “prevents fibrillization; also recorded: inhibited”. Moreover, the “capture on Aβ40WT affinity column” value in data set [3] was “not captured”. The interaction in co-immunoprecipitation entry in data set [4] is “interacts”. Besides, the “binding to wild-type Aβ40” value in data set [5] was “Significantly weaker binding”.
